From publication PMC7913698, “RPA complexes in Caenorhabditis elegans meiosis; unique roles in replication, meiotic recombination and apoptosis” (Nucleic Acids Research, 2021)

B1: OLLAS::RPA-1 (natural protein, C. elegans, UniProt Q19537 1-655, looked up)
chain: MAAIHINHDVFNKYHTNGKLRLTTGYVQEAIENNGYPGHDGIVQVLKGKVEQGEQLGHAFTFRIRISDGVFQYNALMSADIDDQIKREVEHLVEGTIIALTKFEIYDQGEGAKNCFLIKGYKILSRYHQVLTSPEVKPRSHSGKPDEHKGYRPNIIIEDVWPEAEGMAADYQENMANPPAAKAPKREFGEEASYNRAAAPEATRARAVPPPARRTASNTERGVMPIAMVTPYVSNFKIHGMVSRKEEIRTFPAKNTKVFNFEITDSNGDTIRCTAFNEVAESLYTTITENLSYYLSGGSVKQANKKFNNTGHDYEITLRSDSIIEAGGELLAAPKLILKRVKLGEIAGYAGQLIDVLVVVEKMDPEATEFTSKAGKSLIKREMELIDESGALVRLTLWGDEATKALVDDYVQKVIAFKGVIPREFNGGFSLGTGSATRIISVPEIAGVSELYDWYANVKPTTEVKMMSQAAGGSNEAPRTIAGLQEMQFGKDSDKGDYATVKAMITRVNPTNALYRGCASEGCQKKLVGENGDYRCEKCNKNMNKFKWLYMMQFELSDETGQVYVTAFGDSAAKIVGKSAAELGELHDESPDEYNAIFERLQFVPKMWRLRCKMDSYNEEVRQKMTVYGVDDVNQDKYIENLKQMIEQMQQMSDY
notes: also called OLLAS-tagged RPA-1; CeRPA large subunit; source: endogenous locus tagged by CRISPR/Cas9, C. elegans whole worm lysate; not shown: OLLAS, N-terminal, kept
B2: 3XFLAG::RPA-2 (natural protein, C. elegans, UniProt Q95Y97 1-288, looked up)
chain: MWNETVEHENAGNGWAAGESSFMTDRKPDSKATTLGERLPVPVTISNLIEHFSAQDDKYVVGTFRFATVLTVGIVKDISQDGTTYTYDLCDPNNTEMEYRTLKYDNEGSTFDHSSIVEGTRVRAIGKLKGFDGNNTIMLFNITPVEDDKDFTIFELEAEAARLFFQKNVSEKLKSVDSDGFQGMLAPPKSRMSQTSHQSSQGSDTKERLYAQPQKVMTGANQGDVLRERITAVLMAVPEGSRDEGRHVSWIAEQIQETNISIVRKCVGEMVENGLVYTTVDEETVSAI
notes: also called 3XFLAG-tagged RPA-2; source: endogenous locus tagged by CRISPR/Cas9, C. elegans whole worm lysate; not shown: 3xFLAG, N-terminal, kept

How the values were obtained:
Assay in all cases: single-molecule pull-down (SiMPull, TIRF microscopy); whole worm lysate of the triple-tagged strain; biotinylated antibody against the tag of one subunit (anti-OLLAS, anti-FLAG or anti-MYC) tethered to the neutravidin surface captures complexes; Cy3- and Cy5-labelled antibodies against the tags detect the subunits; track counts after wash, summed over fields of view; controls: Pre-Ab and untagged wild-type lysate
[1] = biological target: OLLAS::RPA-1 (C. elegans) (UniProt Q19537)
[2] = biological target: 3XFLAG::RPA-2 (C. elegans) (UniProt Q95Y97)
MYC::RPA-4 (C. elegans) = biological target: MYC::RPA-4 (C. elegans)
[3] = biological target: the molecule itself

| Molecule | pulldown counts [1] | pulldown counts [2] | pulldown counts (MYC::RPA-4 (C. elegans)) | pulldown counts [3] |
| --- | --- | --- | --- | --- |
| MYC::RPA-4 (natural protein) | 1810 counts | 206 counts | 2300 counts |  |
| B1 |  |  | 100 counts | 1060 counts |
| B2 |  |  |  | 724 counts |
